# From article PMC6208443 (2018)
# Square brackets hold non-standard residues; d marks the D form. Ends that are not written are not given here. Lys(Me3) = C[N+](C)(C)CCCC[C@H](N)C(=O)O; Lys(Me2) = CN(C)CCCC[C@H](N)C(=O)O; Lys(Me) = CNCCCC[C@H](N)C(=O)O
# B1: H3K9me3 peptide (ITC) (peptide)
# chain: ARTKQTARKSTGGKA
# modifications: trimethyl-lysine at K9
# B2: H3K4me3K9me2 peptide (peptide)
# chain: ART[Lys(Me3)]QTAR[Lys(Me2)]STGGKA
# B3: H3K9me1 peptide (ITC) (peptide)
# chain: ARTKQTARKSTGGKA
# modifications: monomethyl-lysine at K9
# B4: H3K4me2K9me2 peptide (peptide)
# chain: ART[Lys(Me2)]QTAR[Lys(Me2)]STGGKA
# B5: H3K9me2 peptide (ITC) (peptide)
# chain: ARTKQTARKSTGGKA
# modifications: dimethyl-lysine at K9
# B6: H3K4me1K9me2 peptide (peptide)
# chain: ART[Lys(Me)]QTAR[Lys(Me2)]STGGKA
# Legend:
# Assay in all cases: ITC
# [1] = biological target: RsAGDP1 AGD34
# [2] = biological target: RsAGDP1 AGD56
# [3] = biological target: T1, RsAGDP1 AGD12 (residues 26–180) (Raphanus sativus)
# T1 chain: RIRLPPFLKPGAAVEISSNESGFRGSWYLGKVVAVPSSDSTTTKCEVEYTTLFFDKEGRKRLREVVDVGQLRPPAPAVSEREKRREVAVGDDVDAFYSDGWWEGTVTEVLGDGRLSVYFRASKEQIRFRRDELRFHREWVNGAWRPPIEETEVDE
Binder,Kd [1] [µM],Kd [2] [µM],Kd [3] [µM]
B1,10.7,52.9,101
B2,–,–,103
B3,10.1,50,84.7
B4,–,–,25.5
B5,–,26.2,–
B6,–,–,23.4
